Residue numbers refer to the chain shown, from its start. Names may count otherwise.
How the values were obtained:
Type in all cases: in vivo
[1] = test system: Arabidopsis thaliana T1 plants; assay: Topramezone tolerance of transgenic Arabidopsis thaliana T1 plants (spray, bleached leaf area grade, damage score); conditions: Table 10; for Classification and statistics of the grade of pesticide damage Grade 0: number of plants at grade 0; for Classification and statistics of the grade of pesticide damage Grade 1: number of plants at grade 1; for Classification and statistics of the grade of pesticide damage Grade 2: number of plants at grade 2; for Classification and statistics of the grade of pesticide damage Grade 3: number of plants at grade 3; for Scores: pesticide damage score
Method in brief: (§1)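 T1 transformants selected by glufosinate; 18-day-old plants, with empty-vector and wild-type controls, sprayed with topramezone (25–200 g ai/ha), isoxaflutole (35–280 g ai/ha) or mesotrione (52.5–420 g ai/ha), water as 0×. Bleached leaf area fraction scored at 7 DAT as grades 0–3.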

[2] = test system: Arabidopsis thaliana T1 plants; assay: Isoxaflutole tolerance of transgenic Arabidopsis thaliana T1 plants (spray, bleached leaf area grade, damage score); conditions: Table 11; for Classification and statistics of the grade of pesticide damage Grade 0: number of plants at grade 0; for Classification and statistics of the grade of pesticide damage Grade 1: number of plants at grade 1; for Classification and statistics of the grade of pesticide damage Grade 2: number of plants at grade 2; for Classification and statistics of the grade of pesticide damage Grade 3: number of plants at grade 3; for Scores: pesticide damage score;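 on Scores: Weighted damage index from 0 to 100 where higher means more damage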
Method in brief: as §1

[3] = test system: Arabidopsis thaliana T1 plants; assay: Mesotrione tolerance of transgenic Arabidopsis thaliana T1 plants (spray, bleached leaf area grade, damage score); set-up: Scores: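 damage score 0-100 computed as Σ(N×S)/(T×M)×100 over grades 0-3 with higher meaning more damage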; conditions: Table 12; for Classification and statistics of the grade of pesticide damage Grade 0: number of plants at grade 0; for Classification and statistics of the grade of pesticide damage Grade 1: number of plants at grade 1; for Classification and statistics of the grade of pesticide damage Grade 2: number of plants at grade 2; for Classification and statistics of the grade of pesticide damage Grade 3: number of plants at grade 3; for Scores: pesticide damage score
Method in brief: as §1

B1: HPPDm-8-02: nucleotide sequence encoding AsHPPDm-A111T-K351N-F372A-F383W with mutated C-terminal; vector DBN11789 (nucleic acid)
DNA: ATGCCACCTACTCCAGCTACAGCTACTGGTGCTGCTGCTGCTGCCGTTACTCCTGAGCACGCTGCCAGGTCATTCCCCAGGGTGGTTCGCGTGAACCCCAGATCTGATAGGTTCCCAGTTCTGAGCTTCCACCATGTTGAGCTGTGGTGCGCTGATGCTGCTTCTGCTGCTGGCAGGTTCTCTTTCGCTCTTGGTGCTCCACTCGCTGCTAGATCTGATCTGTCTACAGGAAATAGCGCTCATGCCTCACTCCTGCTTCGCTCAGGTGCTTTGGCCTTCCTCTTCACCGCTCCATATGCTCCCCCACCTCAGGAGGCTGCTACTGCTGCTACTACAGCCTCCATTCCAAGCTTCTCAGCTGATGCCGCTAGAACCTTCGCTGCTGCTCATGGACTTGCCGTGAGGTCTGTTGGTGTTCGCGTGGCTGATGCTGCTGAGGCTTTCAGAGTTTCCGTTGCCGGCGGAGCTAGGCCAGCTTTCGCTCCTGCTGATTTGGGACATGGTTTCGGCCTGGCTGAGGTTGAGCTTTACGGTGACGTGGTTCTCCGCTTCGTGTCTTACCCAGATGAGACTGACCTGCCTTTCCTTCCCGGCTTCGAGAGAGTTTCCTCTCCTGGTGCCGTGGATTACGGCCTGACAAGGTTCGACCACGTGGTTGGAAACGTTCCCGAGATGGCTCCAGTGATCGATTACATGAAGGGCTTCCTTGGATTCCATGAGTTCGCCGAGTTCACTGCTGAGGACGTGGGAACCACTGAGTCCGGTTTGAACTCTGTGGTTCTCGCCAACAATTCTGAGGCTGTTTTGCTCCCTCTGAATGAGCCTGTGCATGGAACCAAGAGGAGAAGCCAGATTCAAACTTACCTGGAGTACCACGGTGGCCCTGGAGTTCAGCATATCGCCCTTGCTTCTAATGATGTGTTGCGCACACTCAGAGAGATGCGCGCCAGAACCCCCATGGGAGGTTTCGAGTTCATGGCCCCACCACAGGCTAAGTACTACGAGGGCGTTAGAAGGATTGCTGGAGACGTGTTGAGCGAGGAGCAGATCAATGAGTGCCAAGAGCTGGGTGTTCTTGTGGATAGGGATGACCAGGGCGTTCTGCTTCAAATTGCCACTAAGCCAGTGGGCGACCGCCCTACATTCTGGCTTGAGATGATTCAAAGAATCGGCTGCATGGAGAAGGATGAGGTTGGACAGGAGTACCAAAAGGGCGGATGCGGTGGCTTCGGAAAGGGTAACTTCAGCGAGTTGTTCAAGTCAATCGAGGAGTATGAGAAGACCTTGGAGGCCAAGCAGCTCGTGGGTTGA
modifications: mutated C-terminus; HPPDm-8-02 Nucleotide Sequence
notes: vector DBN11789
- Resistance evaluation ([1]; topramezone 100 g ai/ha (4×)): Highly resistant
- Classification and statistics of the grade of pesticide damage Grade 0 ([1]; topramezone 100 g ai/ha (4×)): 16
- Classification and statistics of the grade of pesticide damage Grade 1 ([1]; topramezone 100 g ai/ha (4×)): 0
- Classification and statistics of the grade of pesticide damage Grade 2 ([1]; topramezone 100 g ai/ha (4×)): 0
- Classification and statistics of the grade of pesticide damage Grade 3 ([1]; topramezone 100 g ai/ha (4×)): 0
- Scores ([1]; topramezone 100 g ai/ha (4×)): 0
- Resistance evaluation ([1]; topramezone 200 g ai/ha (8×)): Highly resistant
- Classification and statistics of the grade of pesticide damage Grade 0 ([1]; topramezone 200 g ai/ha (8×)): 16
- Classification and statistics of the grade of pesticide damage Grade 1 ([1]; topramezone 200 g ai/ha (8×)): 0
- Classification and statistics of the grade of pesticide damage Grade 2 ([1]; topramezone 200 g ai/ha (8×)): 0
- Classification and statistics of the grade of pesticide damage Grade 3 ([1]; topramezone 200 g ai/ha (8×)): 0
- Scores ([1]; topramezone 200 g ai/ha (8×)): 0
- Resistance evaluation ([2]; isoxaflutole 140 g ai/ha (2×)): Highly resistant
- Classification and statistics of the grade of pesticide damage Grade 0 ([2]; isoxaflutole 140 g ai/ha (2×)): 16
- Classification and statistics of the grade of pesticide damage Grade 1 ([2]; isoxaflutole 140 g ai/ha (2×)): 0
- Classification and statistics of the grade of pesticide damage Grade 2 ([2]; isoxaflutole 140 g ai/ha (2×)): 0
- Classification and statistics of the grade of pesticide damage Grade 3 ([2]; isoxaflutole 140 g ai/ha (2×)): 0
- Scores ([2]; isoxaflutole 140 g ai/ha (2×)): 0
- Resistance evaluation ([2]; isoxaflutole 280 g ai/ha (4×)): Highly resistant
- Classification and statistics of the grade of pesticide damage Grade 0 ([2]; isoxaflutole 280 g ai/ha (4×)): 16
- Classification and statistics of the grade of pesticide damage Grade 1 ([2]; isoxaflutole 280 g ai/ha (4×)): 0
- Classification and statistics of the grade of pesticide damage Grade 2 ([2]; isoxaflutole 280 g ai/ha (4×)): 0
- Classification and statistics of the grade of pesticide damage Grade 3 ([2]; isoxaflutole 280 g ai/ha (4×)): 0
- Scores ([2]; isoxaflutole 280 g ai/ha (4×)): 0
- Resistance evaluation ([3]; mesotrione 210 g ai/ha (2×)): Highly resistant
- Classification and statistics of the grade of pesticide damage Grade 0 ([3]; mesotrione 210 g ai/ha (2×)): 16
- Classification and statistics of the grade of pesticide damage Grade 1 ([3]; mesotrione 210 g ai/ha (2×)): 0
- Classification and statistics of the grade of pesticide damage Grade 2 ([3]; mesotrione 210 g ai/ha (2×)): 0
- Classification and statistics of the grade of pesticide damage Grade 3 ([3]; mesotrione 210 g ai/ha (2×)): 0
- Scores ([3]; mesotrione 210 g ai/ha (2×)): 0
- Resistance evaluation ([3]; mesotrione 420 g ai/ha (4×)): Highly resistant
- Classification and statistics of the grade of pesticide damage Grade 0 ([3]; mesotrione 420 g ai/ha (4×)): 16
- Classification and statistics of the grade of pesticide damage Grade 1 ([3]; mesotrione 420 g ai/ha (4×)): 0
- Classification and statistics of the grade of pesticide damage Grade 2 ([3]; mesotrione 420 g ai/ha (4×)): 0
- Classification and statistics of the grade of pesticide damage Grade 3 ([3]; mesotrione 420 g ai/ha (4×)): 0
- Scores ([3]; mesotrione 420 g ai/ha (4×)): 0

B2: HPPDm-9-02: nucleotide sequence encoding AsHPPDm-A106G-K351N-F372A-F383W with mutated C-terminal; vector DBN11790 (nucleic acid)
DNA: B1 DNA with C317G, A331G
modifications: mutated C-terminus; HPPDm-9-02 Nucleotide Sequence
notes: vector DBN11790
- Resistance evaluation ([1]; topramezone 100 g ai/ha (4×)): Highly resistant
- Classification and statistics of the grade of pesticide damage Grade 0 ([1]; topramezone 100 g ai/ha (4×)): 16
- Classification and statistics of the grade of pesticide damage Grade 1 ([1]; topramezone 100 g ai/ha (4×)): 0
- Classification and statistics of the grade of pesticide damage Grade 2 ([1]; topramezone 100 g ai/ha (4×)): 0
- Classification and statistics of the grade of pesticide damage Grade 3 ([1]; topramezone 100 g ai/ha (4×)): 0
- Scores ([1]; topramezone 100 g ai/ha (4×)): 0
- Resistance evaluation ([1]; topramezone 200 g ai/ha (8×)): Highly resistant
- Classification and statistics of the grade of pesticide damage Grade 0 ([1]; topramezone 200 g ai/ha (8×)): 16
- Classification and statistics of the grade of pesticide damage Grade 1 ([1]; topramezone 200 g ai/ha (8×)): 0
- Classification and statistics of the grade of pesticide damage Grade 2 ([1]; topramezone 200 g ai/ha (8×)): 0
- Classification and statistics of the grade of pesticide damage Grade 3 ([1]; topramezone 200 g ai/ha (8×)): 0
- Scores ([1]; topramezone 200 g ai/ha (8×)): 0
- Resistance evaluation ([2]; isoxaflutole 140 g ai/ha (2×)): Highly resistant
- Classification and statistics of the grade of pesticide damage Grade 0 ([2]; isoxaflutole 140 g ai/ha (2×)): 16
- Classification and statistics of the grade of pesticide damage Grade 1 ([2]; isoxaflutole 140 g ai/ha (2×)): 0
- Classification and statistics of the grade of pesticide damage Grade 2 ([2]; isoxaflutole 140 g ai/ha (2×)): 0
- Classification and statistics of the grade of pesticide damage Grade 3 ([2]; isoxaflutole 140 g ai/ha (2×)): 0
- Scores ([2]; isoxaflutole 140 g ai/ha (2×)): 0
- Resistance evaluation ([2]; isoxaflutole 280 g ai/ha (4×)): Highly resistant
- Classification and statistics of the grade of pesticide damage Grade 0 ([2]; isoxaflutole 280 g ai/ha (4×)): 16
- Classification and statistics of the grade of pesticide damage Grade 1 ([2]; isoxaflutole 280 g ai/ha (4×)): 0
- Classification and statistics of the grade of pesticide damage Grade 2 ([2]; isoxaflutole 280 g ai/ha (4×)): 0
- Classification and statistics of the grade of pesticide damage Grade 3 ([2]; isoxaflutole 280 g ai/ha (4×)): 0
- Scores ([2]; isoxaflutole 280 g ai/ha (4×)): 0
- Resistance evaluation ([3]; mesotrione 210 g ai/ha (2×)): Highly resistant
- Classification and statistics of the grade of pesticide damage Grade 0 ([3]; mesotrione 210 g ai/ha (2×)): 16
- Classification and statistics of the grade of pesticide damage Grade 1 ([3]; mesotrione 210 g ai/ha (2×)): 0
- Classification and statistics of the grade of pesticide damage Grade 2 ([3]; mesotrione 210 g ai/ha (2×)): 0
- Classification and statistics of the grade of pesticide damage Grade 3 ([3]; mesotrione 210 g ai/ha (2×)): 0
- Scores ([3]; mesotrione 210 g ai/ha (2×)): 0
- Resistance evaluation ([3]; mesotrione 420 g ai/ha (4×)): Highly resistant
- Classification and statistics of the grade of pesticide damage Grade 0 ([3]; mesotrione 420 g ai/ha (4×)): 16
- Classification and statistics of the grade of pesticide damage Grade 1 ([3]; mesotrione 420 g ai/ha (4×)): 0
- Classification and statistics of the grade of pesticide damage Grade 2 ([3]; mesotrione 420 g ai/ha (4×)): 0
- Classification and statistics of the grade of pesticide damage Grade 3 ([3]; mesotrione 420 g ai/ha (4×)): 0
- Scores ([3]; mesotrione 420 g ai/ha (4×)): 0
